Results published in PMC7897482, “Ecd promotes U5 snRNP maturation and Prp8 stability” (Nucleic Acids Research, 2021).

Biological target: T1, His::Ecd (Drosophila melanogaster, UniProt Q9W032 1-684)
T1 construct: Ecdysoneless (Ecd), Drosophila melanogaster; cDNA cloned into pET28b; also called His-tagged Ecd; source: E. coli BL21 Rosetta (DE3), purified (Ni Sepharose)
T1 sequence (looked up): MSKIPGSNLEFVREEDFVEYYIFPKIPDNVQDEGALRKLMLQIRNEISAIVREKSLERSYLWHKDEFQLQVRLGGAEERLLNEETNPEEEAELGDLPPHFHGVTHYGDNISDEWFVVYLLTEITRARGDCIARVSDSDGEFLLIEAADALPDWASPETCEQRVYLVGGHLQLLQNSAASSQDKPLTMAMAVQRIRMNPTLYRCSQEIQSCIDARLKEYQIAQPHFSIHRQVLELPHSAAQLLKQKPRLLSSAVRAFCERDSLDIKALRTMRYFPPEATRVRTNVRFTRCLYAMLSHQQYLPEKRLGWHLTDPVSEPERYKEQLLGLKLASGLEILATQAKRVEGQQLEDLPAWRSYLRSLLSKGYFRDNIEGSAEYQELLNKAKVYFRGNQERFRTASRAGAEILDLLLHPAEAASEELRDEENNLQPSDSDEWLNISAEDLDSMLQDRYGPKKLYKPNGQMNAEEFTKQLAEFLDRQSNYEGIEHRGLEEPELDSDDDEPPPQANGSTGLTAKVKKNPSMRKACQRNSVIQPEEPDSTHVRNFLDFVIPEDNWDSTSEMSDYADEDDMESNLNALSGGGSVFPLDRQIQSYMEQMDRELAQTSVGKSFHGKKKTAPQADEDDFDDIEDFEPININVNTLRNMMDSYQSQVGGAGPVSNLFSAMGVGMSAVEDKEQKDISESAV
Test: pull-down; 10 μg of purified His::Ecd and His::SmD3::HA incubated alone or together overnight at 4°C with protein G Dynabeads coupled to rat anti-Ecd N-term antibody; western blot
Settings: both partners purified

- binding result: binds
B1: His::SmD3::HA (natural protein, Drosophila melanogaster, UniProt O44437 1-151, looked up)
chain: MSIGVPIKVLHEAEGHIITCETITGEVYRGKLIEAEDNMNCQMTQITVTYRDGRTANLENVYIRGSKIRFLILPDMLKNAPMFKKQTGKGLGGTAGRGKAAILRAQARGRGRGGPPGGGRGTGGPPGAPGGSGGRGAWQGGPTGGRGRGGL
notes: Sm ring protein SmD3, Drosophila melanogaster; cDNA cloned into Gateway pDEST17; also called His-tagged SmD3; source: E. coli BL21 Rosetta (DE3), purified (Ni Sepharose)
